# Laboratory results from PMC3367564.
# How the values were obtained:
# [1] = molecular target: MBP-sAnk1(29-155) (UniProt P16157); test: SPR
# [2] = molecular target: MBP-sAnk1(29-155) D111R (UniProt P16157); test: SPR
# [3] = molecular target: obscurin (UniProt Q5VST9); details: cited from earlier work
peak binding relative to wild type [1],ratio of binding to sAnk1-D111R over binding to wild type sAnk1 [2],Substance,further results
40 % of control,–,GST-Obsc(6316-6436) E6329A (domain or fragment),–
–,1.7,GST-Obsc(6316-6436) K6338A (domain or fragment),–
–,1.7,"GST-Obsc(6316-6436), wild type (domain or fragment)",–
10 % of control,–,"GST-Obsc(6316-6436) with the two N-terminal glutamates changed to alanines (E6327A, E6329A) (domain or fragment)",–
–,3.7,GST-Obsc(6316-6436) K6338E (domain or fragment),–
40 % of control,–,GST-Obsc(6316-6436) E6327A (domain or fragment),–
–,–,small ankyrin 1 (from UniProt P16157),Kd [3]: 130 nM
–,1.7,GST-Obsc(6316-6436) K6337E (domain or fragment),–
